The values that follow come from the RNAGym collection of RNA variant scans (doi:10.1093/molbev/msab373).

B1: Azoarcus group I ribozyme (parent)
chain: GUGCCUUGCGCCGGGAAACCACGCAAGGGAUGGUGUCAAAUUCGGCGAAACCUAAGCGCCCGCCCGGGCGUAUGGCAACGCCGAGCCAAGCUUCGGCGCCUGCGCCGAUGAAGGUGUAGAGACUAGACGGCACCCACCUAAGGCAAACGCUAUGGUGAAGGCAUAGUCCAGGGAGUGGCGAAAGUCACACAAACCGG

Variants of B1 are the subject of this data set. As to the kind of experiment: reverse-splicing fitness (ratio to wild type); higher = more active; in vitro selection; Mg2+ level not given. In a few lines: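 An in vitro group I ribozyme library with randomized positions was T7-transcribed and gel-purified. In triplicate, 10 pmol RNA in EPPS pH 7.5 was reacted with 50 pmoles of a 30-nt RNA substrate for 1 h at 37 °C across several added MgCl2 levels (1–48 mM), then stopped with EDTA. Products were reverse transcribed from a substrate-complementary primer, PCR-amplified and sequenced (HiSeq 4000). Fitness is a variant's read proportion after selection over that before, normalised to wild type.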
With C82G A120U A145U C150U C169A U176G, the reverse-splicing fitness was 0.00157.
Next, C82G A120U A145U C150U C169A U176A: 0.00183; C82G A120G A145U C150U C169G U176A: 0.015; C82G A120G A145U C150U C169G U176C: 0.0218.
Take C82G A120G A145U C150U C169G U176G: the reverse-splicing fitness turned out to be 0.00476.
Next, C82G A120U C150A C169G: 0.00295.
Take C82G A120U C150A C169A: the reverse-splicing fitness was determined as 0.00401.
As for C82G A120U C150A C169U, the reverse-splicing fitness was found to be 0.00426.
Then C82G A120G A145U C150A C169G U176C, with 0.0157.
C82G A120G A145U C150A C169G U176G: the reverse-splicing fitness is 0.00401.
Then C82G A120G A145U C150A C169G U176A, with 0.0132.
Then C82G A120U A145G C169A U176A, with 0.00356; and C82G A120U A145G C169A U176G, with 0.00159; and C82G A120U A145G C169A U176C, with 0.00321.
Next, C82G A120G A145U C150U C169U U176C: 0.0181; C82G A120G A145U C150U C169U U176G: 0.00413; C82G A120G A145U C150U C169U U176A: 0.0201.
C82G A120U A145U C150G U176C: the reverse-splicing fitness was 0.0112.
Next, C82G A120U A145U C150G U176G: 0.00267; C82G A120U A145U C150G U176A: 0.00715; C82G A120G A145U C150A U176G: 0.00553.
For C82G A120G A145U C150A U176C, the reverse-splicing fitness turned out to be 0.0139.
For the variant C82G A120G A145U C150A U176A, the reverse-splicing fitness is 0.0105.
Then C82G A120G A145U C150G C169U U176A, with 0.0125; and C82G A120G A145U C150G C169U U176G, with 0.00487.
With C82G A120G A145U C150G C169U U176C, the reverse-splicing fitness was 0.0129.
Next, C82G A120G A145U: 0.0294.
For C82G A120U A145G C169G U176G, the reverse-splicing fitness turned out to be 0.00145.
Then C82G A120U A145G C169G U176C, with 0.00438; and C82G A120U A145G C169G U176A, with 0.00368; and C82G A120U C150A, with 0.0159.
Take C82G A120U A145U C150U C169G: the reverse-splicing fitness came out at 0.00513.
For the variant C82G A120U A145U C150U C169U, the reverse-splicing fitness is 0.00488.
Next, C82G A120U A145U C150U C169A: 0.00259.
Next, C82G A120U C150A C169A U176A: 0.00432; C82G A120U C150A C169A U176C: 0.0035.
With C82G A120U C150A C169A U176G, the reverse-splicing fitness is 0.00205.
As to C82G A120G C150U U176C, the reverse-splicing fitness is 0.0192.
Next, C82G A120G C150U U176G: 0.0083; C82G A120G C150U U176A: 0.0117.
With C82G A120U A145G C150G C169U U176G, the reverse-splicing fitness is 0.00451.
Next, C82G A120U A145G C150G C169U U176A: 0.00829; C82G A120U A145G C150G C169U U176C: 0.00701.
Next, C82G A120U A145G C169U U176C: 0.00453.
Then C82G A120U A145G C169U U176G, with 0.00154.
With C82G A120U A145G C169U U176A, the reverse-splicing fitness was found to be 0.00419.
Next, C82G A120U A145U C169A U176A: 0.00245; C82G A120U A145U C169A U176G: 0.0013; C82G A120U A145U C169A U176C: 0.00205.
Then C82G A120G C169G U176A, with 0.0234.
Then C82G A120G C169G U176G, with 0.00375.
C82G A120G C169G U176C: the reverse-splicing fitness was found to be 0.0324.
Then C82G A120G C150A, with 0.00962; and C82G A120G C150U, with 0.0196.
Then C82G A120G C150G, with 0.00725; and C82G A120U A145C C150U C169G, with 0.003.
Then C82G A120U A145C C150U C169U, with 0.00351; and C82G A120U A145C C150U C169A, with 0.00185; and C82G A120G C150G C169U, with 0.00956.
On to C82G A120G C150G C169A, for which the reverse-splicing fitness was determined as 0.00981.
For C82G A120G C150G C169G, the reverse-splicing fitness was 0.00959.
Then C82G A120U A145C C169U, with 0.00694; and C82G A120U A145C C169G, with 0.00562; and C82G A120U A145C C169A, with 0.00201.
Next, C82G A120G C150G C169U U176G: 0.00645; C82G A120G C150G C169U U176C: 0.0158; C82G A120G C150G C169U U176A: 0.0113.
For C82G A120U A145G C150G C169G U176A, the reverse-splicing fitness was 0.00901.
Then C82G A120U A145G C150G C169G U176C, with 0.00637; and C82G A120U A145G C150G C169G U176G, with 0.00411; and C82G A120U A145U C150U U176G, with 0.0126.
Next, C82G A120U A145U C150U U176C: 0.0591; C82G A120U A145U C150U U176A: 0.0449; C82G A120U A145G C150A U176G: 0.00517.
Then C82G A120U A145G C150A U176C, with 0.014.
For the variant C82G A120U A145G C150A U176A, the reverse-splicing fitness turned out to be 0.0118.
Next, C82G A120G A145U C150U C169A U176C: 0.0133; C82G A120G A145U C150U C169A U176A: 0.0161; C82G A120G A145U C150U C169A U176G: 0.00467.
For C82G A120G A145U C150U U176A, the reverse-splicing fitness worked out at 0.0121.
Then C82G A120G A145U C150U U176G, with 0.00475.
Then C82G A120G A145U C150U U176C, with 0.0189; and C82G A120U A145C C150U C169U U176G, with 0.00165.
